Laboratory results published in US20250332254A1, “METHODS FOR TREATING PATIENTS WITH FAMILIAL HYPERCHOLESTEROLEMIA” (REGENERON PHARMACEUTICALS, INC., priority 2016, published 2025).
“And” between values parts separate entries of the source, which are not always exact repeats. Equal values may be shown once.

Assays:
[1] = target: T1, ANGPTL3 (Homo sapiens, UniProt Q9Y5C1); assay: Phase 2 open-label study of evinacumab in patients with homozygous familial hypercholesterolemia on concomitant lipid-lowering therapies; format: in vivo; conditions: for LDL-C, Mean of Percent Change from Baseline ± SE (%) / Non-HDL-C, Mean of Percent Change from Baseline ± SE (%) / Apolipoprotein B, Mean of Percent Change from Baseline ± SE (%): 250 mg SC wk 0 + 15 mg/kg IV wk 2
T1 construct: Angiopoietin-like protein 3 (ANGPTL3) is a secreted protein expressed in the liver; from tissue; host or cells: in vivo, human subjects; circulating protein secreted by the liver
T1 sequence (Q9Y5C1 17-460): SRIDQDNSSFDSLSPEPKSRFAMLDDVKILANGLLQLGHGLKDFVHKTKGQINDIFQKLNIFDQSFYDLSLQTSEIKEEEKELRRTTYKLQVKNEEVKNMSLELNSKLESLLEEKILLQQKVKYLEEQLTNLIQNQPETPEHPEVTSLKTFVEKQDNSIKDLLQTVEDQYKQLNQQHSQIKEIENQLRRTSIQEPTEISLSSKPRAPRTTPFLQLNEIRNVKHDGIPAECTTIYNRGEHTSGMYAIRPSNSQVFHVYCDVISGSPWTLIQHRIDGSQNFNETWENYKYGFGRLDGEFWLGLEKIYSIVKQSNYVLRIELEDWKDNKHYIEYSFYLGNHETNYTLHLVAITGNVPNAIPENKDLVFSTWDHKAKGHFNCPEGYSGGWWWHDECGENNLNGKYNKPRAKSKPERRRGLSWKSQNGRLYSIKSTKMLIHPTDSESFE
Protocol: Patients: The nine patients (5 men, 4 women) were selected based on their genotypes and phenotypes. All presented a history of LDL-C >500 mg per deciliter or >400 mg per deciliter after portacaval shunt, premature atherosclerosis (8 of 9 with prior history of cardiovascular events) and severe xanthomatosis, and were homozygotes or compound heterozygotes for known FH-causing LDLR mutations (Hobbs, et al. 1992 Hum Mutat 1:445-66). Three patients were null homozygotes. All patients were on maximally tolerated lipid-lowering therapy.
Study Treatment: The patients were required to maintain their usual background lipid-lowering therapy and diet and exercise regimens throughout the study. All patients received a single open-label dose of evinacumab 250 mg subcutaneously in the abdominal area during the baseline visit and a single 15 mg per kilogram intravenous dose of evinacumab 2 weeks later. The sterile, lyophilized evinacumab drug product was supplied in a 5-ml single-use glass vial for reconstitution to a concentration of 100 mg per milliliter for subcutaneous doses and 50 mg per milliliter for intravenous doses. Patients were followed for a period of up to 24 weeks after the intravenous dose to allow for washout of evinacumab, and were offered enrollment in an extension study.
Pharmacodynamic Assessment: Fasting blood samples were collected before administration of study drug, at baseline and at regular intervals during the open-label treatment period and safety follow-up period, for measurement of LDL-C, non-HDL-C, total cholesterol, HDL-C, apolipoprotein B, lipoprotein (a), triglycerides, apolipoprotein A-1, and other parameters. The primary endpoint was the mean ±standard deviation (SD) percent change in LDL-C from baseline to week 4.

[2] = target: T2, ANGPTL3 (Mus musculus, UniProt Q9R182); conditions: mouse model; Wang, et al. 2015; cited from earlier work
T2 construct: host or cells: mouse, in vivo
T2 sequence (Q9R182 17-455): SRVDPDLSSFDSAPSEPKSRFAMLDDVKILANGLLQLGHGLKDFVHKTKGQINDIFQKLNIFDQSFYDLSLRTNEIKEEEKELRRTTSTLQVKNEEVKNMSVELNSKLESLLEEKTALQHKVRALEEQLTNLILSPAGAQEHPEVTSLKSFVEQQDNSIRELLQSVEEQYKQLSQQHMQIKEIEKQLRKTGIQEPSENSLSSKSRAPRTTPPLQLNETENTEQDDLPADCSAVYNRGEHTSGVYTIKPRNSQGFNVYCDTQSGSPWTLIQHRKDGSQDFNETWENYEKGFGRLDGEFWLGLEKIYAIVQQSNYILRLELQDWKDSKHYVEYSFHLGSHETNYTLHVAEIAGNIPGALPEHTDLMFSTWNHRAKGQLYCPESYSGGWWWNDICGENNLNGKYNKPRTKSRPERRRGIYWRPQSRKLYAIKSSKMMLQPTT

[3] = 3 homozygous null patients, through week 12
[4] = nine HoFH patients, baseline to week 4, given as a decrease
[5] = nine HoFH patients, between weeks 4 and 12

## evinacumab: human anti-ANGPTL3 monoclonal antibody; HCVR SEQ ID NO:1, LCVR SEQ ID NO:5
[1]; [3]
  mean±SD peak reduction in LDL-C: −48±13%
  range of peak reduction in LDL-C: −60% to −33%
[1]; 250-mg subcutaneous injection at baseline and 15 mg per kilogram intravenous infusion at week 2
  tolerability: well tolerated
[1]; HoFH patients
  absolute reductions in LDL-C achieved: 150 to 200 mg/dL
[1]; HoFH patients, Day 4
  LDL-C, Mean of Percent Change from Baseline ± SE (%): −12.8 ± 3.7%
  Non-HDL-C, Mean of Percent Change from Baseline ± SE (%): −13.6 ± 3.6%
[1]; HoFH patients, Week 1
  LDL-C, Mean of Percent Change from Baseline ± SE (%): −24 ± 7.0%
  Non-HDL-C, Mean of Percent Change from Baseline ± SE (%): −24.1 ± 6.7%
[1]; HoFH patients, Week 2
  Apolipoprotein B, Mean of Percent Change from Baseline ± SE (%): −24.2 ± 7%
  LDL-C, Mean of Percent Change from Baseline ± SE (%): −30.2 ± 8.1%
  Non-HDL-C, Mean of Percent Change from Baseline ± SE (%): −29.6 ± 7.8%
[1]; HoFH patients, Week 3
  Apolipoprotein B, Mean of Percent Change from Baseline ± SE (%): −38.6 ± 7.3%
  LDL-C, Mean of Percent Change from Baseline ± SE (%): −41.4 ± 8.3%
  Non-HDL-C, Mean of Percent Change from Baseline ± SE (%): −41.6 ± 8%
[1]; HoFH patients, Week 4
  Apolipoprotein B, Mean of Percent Change from Baseline ± SE (%): −45.9 ± 6.1%
  LDL-C, Mean of Percent Change from Baseline ± SE (%): −49.2 ± 7.7%
  Non-HDL-C, Mean of Percent Change from Baseline ± SE (%): −48.9 ± 7.4%
[1]; HoFH patients, Week 5
  Apolipoprotein B, Mean of Percent Change from Baseline ± SE (%): −42.3 ± 4.7%
  LDL-C, Mean of Percent Change from Baseline ± SE (%): −46.8 ± 5.1%
  Non-HDL-C, Mean of Percent Change from Baseline ± SE (%): −46.6 ± 5.0%
[1]; HoFH patients, Week 6
  Apolipoprotein B, Mean of Percent Change from Baseline ± SE (%): −43.1 ± 4.9%
  LDL-C, Mean of Percent Change from Baseline ± SE (%): −52.1 ± 4.9%
  Non-HDL-C, Mean of Percent Change from Baseline ± SE (%): −51.5 ± 4.8%
[1]; HoFH patients, Week 8
  Apolipoprotein B, Mean of Percent Change from Baseline ± SE (%): −42.7 ± 4.8%
  LDL-C, Mean of Percent Change from Baseline ± SE (%): −51.6 ± 6.0%
  Non-HDL-C, Mean of Percent Change from Baseline ± SE (%): −50.6 ± 5.7%
[1]; HoFH patients, Week 10
  LDL-C, Mean of Percent Change from Baseline ± SE (%): −45.6 ± 4.6%
  Non-HDL-C, Mean of Percent Change from Baseline ± SE (%): −44.8 ± 4.4%
[1]; HoFH patients, Week 12
  Apolipoprotein B, Mean of Percent Change from Baseline ± SE (%): −29.5 ± 7.2%
  LDL-C, Mean of Percent Change from Baseline ± SE (%): −36.6 ± 6.4%
  Non-HDL-C, Mean of Percent Change from Baseline ± SE (%): −36.4 ± 6.2%
[1]; Patient C on high-dose statins, ezetimibe and lomitapide, week 4, 2 weeks after evinacumab intravenous administration
  LDL-C reached, Patient C: 15 mg per deciliter
[1]; Patient C, concomitant lomitapide, 2 weeks after evinacumab intravenous administration
  reduction in LDL-C, Patient C: 90%
[1]; Patient G, concomitant lomitapide, 2 weeks after evinacumab intravenous administration
  reduction in LDL-C, Patient G: 44%
[1]; all nine patients, including the three homozygous null patients lacking LDLR activity
  reductions in LDL-C from baseline in all patients: clinically meaningful reductions in LDL-C from baseline
[1]; evinacumab add-on therapy in HoFH participants
  normalization of LDL-C concentrations: normalization of LDL-C concentrations in four HoFH participants
[1]; nine HoFH adults on maximally-tolerated conventional therapies, week 4, given as a decrease
  LDL-C decreased (primary endpoint): 49%
[1]; nine HoFH patients
  adverse events considered as related to the study medication: Six events were considered as related to the study medication
  adverse events leading to treatment discontinuation: none led to treatment discontinuation
  occurrence of at least one adverse event: All nine patients reported the occurrence of at least one adverse event
  serious adverse events: One event (coronary artery disease due to underlying disease) was serious but was not considered as related to the study medication
[1]; nine HoFH patients, baseline to week 4
  triglycerides percent change, interquartile range: −57% to −38%
[1]; [4]
  HDL-C decreased by (percent change, mean±SD): 36±16%
  apolipoprotein B decreased by (percent change, mean±SD): 46±18%
  non-HDL-C decreased by (percent change, mean±SD): 49±22%
  triglycerides decreased by (percent change, median): 47%
[1]; [5]
  Overall mean±SD peak reduction in LDL-C: -58+18% and −58±18%
  absolute peak reduction in LDL-C: 202 mg/dL
[1]; nine HoFH patients, between weeks 4 and 12, range across patients
  range of peak reduction in LDL-C: -90% to-33%
[1]; nine HoFH patients, week 4
  absolute change from baseline in LDL-C (mean±SD): −157±90 mg per deciliter
  mean±SD achieved LDL-C value: 219±191 mg per deciliter
  mean±SD percent change in LDL-C from baseline to week 4 (pre-specified primary endpoint): −49±23%
[1]; nine HoFH patients, week 4, range across patients
  range of absolute change from baseline in LDL-C: −323 to −71 mg per deciliter
[1]; one patient, week 4 (2 weeks after the intravenous dose)
  reduction in LDL-C achieved by one patient: greater than 80%
[1]; patient D, no lomitapide, week 4
  reduction in LDL-C, patient D: −77%
[2]
  number of VLDLs secreted by the liver and character of VLDL particles: did not affect the number of VLDLs secreted by the liver, but qualitatively altered the VLDL particles that were made
